# According to IntAct's records for PubMed 16619031:
# B1: DNA replication regulator SLD2 (Saccharomyces cerevisiae), P34252 (parent)
# chain: MYSFELDKLKIELKTWEHDFIDKNKREPTRDDIKSLRTVRQMYKQYSTLKKKQSLQRQKVDTQESVELPAHKKDHDEVVEIGPTPQVYGKAISIFDMNLSPIKPIYMTFTNNIDVNNDNSKTISNESSPRKTILLKSSPADRTLVAEPISSVKRQLNFQMLNASSTRTPTSSPCKNRNGKLVEIKKCSPTINPPLESGKPSGYYGPNSPLKLDEENIHLNISLNSSTKRRLQIAYPSLQKTPSKDQADISTSFSPSPLIRRPLTKSLIELAREHTEIVKEFGVLQEEDIEEEEEGEEGENGYDEKNHEDDFGLEDELIRPKVVKDIFQEDDDNDDSQAREDTFIRKRPKRRKVIRRLRDNDPETETAGFERDVHKELVKLKRRKVAEFLGSTSQISDTEFEHDPEASSGVVSSEQKPTAKRKGRKKYNLVSNNFRRLKLPKKNRFSNGRWGRR
# partner: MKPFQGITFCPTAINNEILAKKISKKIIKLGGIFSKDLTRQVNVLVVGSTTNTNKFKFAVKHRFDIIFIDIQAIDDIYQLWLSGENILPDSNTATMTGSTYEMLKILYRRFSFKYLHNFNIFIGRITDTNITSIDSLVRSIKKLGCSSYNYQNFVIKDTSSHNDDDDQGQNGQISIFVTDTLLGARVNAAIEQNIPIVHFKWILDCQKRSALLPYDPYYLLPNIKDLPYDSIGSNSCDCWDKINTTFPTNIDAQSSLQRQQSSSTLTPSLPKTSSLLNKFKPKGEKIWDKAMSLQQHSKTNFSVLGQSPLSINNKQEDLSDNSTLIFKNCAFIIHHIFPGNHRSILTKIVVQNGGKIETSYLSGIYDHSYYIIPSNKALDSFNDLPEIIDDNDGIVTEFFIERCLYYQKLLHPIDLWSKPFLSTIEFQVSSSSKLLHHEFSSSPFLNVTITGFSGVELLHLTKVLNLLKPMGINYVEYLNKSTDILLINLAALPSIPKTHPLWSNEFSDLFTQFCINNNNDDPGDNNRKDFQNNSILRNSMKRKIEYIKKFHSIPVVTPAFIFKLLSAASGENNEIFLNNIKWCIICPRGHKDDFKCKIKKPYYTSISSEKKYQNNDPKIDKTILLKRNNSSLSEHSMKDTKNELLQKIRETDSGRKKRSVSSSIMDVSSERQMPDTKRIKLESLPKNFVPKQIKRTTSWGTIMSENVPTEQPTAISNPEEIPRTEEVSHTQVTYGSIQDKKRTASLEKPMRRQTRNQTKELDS
# Variants of: B1
# Details: with dpb11_yeast DPB11, P47027
row,Variant,effect of a mutation on the interaction
1,MYSFELDKLKIELKTWEHDFIDKNKREPTRDDIKSLRTVRQMYKQYSTLKKKQSLQRQKVDTQESVELPAHKKDHDEVVEIGPAPQVYGKAISIFDMNLSPIKPIYMTFTNNIDVNNDNSKTISNESSPRKTILLKSSPADRTLVAEPISSVKRQLNFQMLNASSTRTPTSSPCKNRNGKLVEIKKCSPTINPPLESGKPSGYYGPNSPLKLDEENIHLNISLNSSTKRRLQIAYPSLQKTPSKDQADISTSFSPSPLIRRPLTKSLIELAREHTEIVKEFGVLQEEDIEEEEEGEEGENGYDEKNHEDDFGLEDELIRPKVVKDIFQEDDDNDDSQAREDTFIRKRPKRRKVIRRLRDNDPETETAGFERDVHKELVKLKRRKVAEFLGSTSQISDTEFEHDPEASSGVVSSEQKPTAKRKGRKKYNLVSNNFRRLKLPKKNRFSNGRWGRR [T84A],disrupting interaction

# Variants of: B1
# Details: with dpb11_yeast DPB11, P47027
# Remark: another data set of the same source
row,Variant,effect of a mutation on the interaction
1,MYSFELDKLKIELKTWEHDFIDKNKREPTRDDIKSLRTVRQMYKQYSTLKKKQSLQRQKVDTQESVELPAHKKDHDEVVEIGPTPQVYGKAISIFDMNLAPIKPIYMTFTNNIDVNNDNSKTISNESSPRKTILLKSSPADRTLVAEPISSVKRQLNFQMLNASSTRTPTSSPCKNRNGKLVEIKKCSPTINPPLESGKPSGYYGPNSPLKLDEENIHLNISLNSSTKRRLQIAYPSLQKTPSKDQADISTSFSPSPLIRRPLTKSLIELAREHTEIVKEFGVLQEEDIEEEEEGEEGENGYDEKNHEDDFGLEDELIRPKVVKDIFQEDDDNDDSQAREDTFIRKRPKRRKVIRRLRDNDPETETAGFERDVHKELVKLKRRKVAEFLGSTSQISDTEFEHDPEASSGVVSSEQKPTAKRKGRKKYNLVSNNFRRLKLPKKNRFSNGRWGRR [S100A],disrupting interaction
2,MYSFELDKLKIELKTWEHDFIDKNKREPTRDDIKSLRTVRQMYKQYSTLKKKQSLQRQKVDTQESVELPAHKKDHDEVVEIGPTPQVYGKAISIFDMNLSPIKPIYMTFTNNIDVNNDNSKTISNESAPRKTILLKSSPADRTLVAEPISSVKRQLNFQMLNASSTRTPTSSPCKNRNGKLVEIKKCSPTINPPLESGKPSGYYGPNSPLKLDEENIHLNISLNSSTKRRLQIAYPSLQKTPSKDQADISTSFSPSPLIRRPLTKSLIELAREHTEIVKEFGVLQEEDIEEEEEGEEGENGYDEKNHEDDFGLEDELIRPKVVKDIFQEDDDNDDSQAREDTFIRKRPKRRKVIRRLRDNDPETETAGFERDVHKELVKLKRRKVAEFLGSTSQISDTEFEHDPEASSGVVSSEQKPTAKRKGRKKYNLVSNNFRRLKLPKKNRFSNGRWGRR [S128A],disrupting interaction
3,MYSFELDKLKIELKTWEHDFIDKNKREPTRDDIKSLRTVRQMYKQYSTLKKKQSLQRQKVDTQESVELPAHKKDHDEVVEIGPTPQVYGKAISIFDMNLSPIKPIYMTFTNNIDVNNDNSKTISNESSPRKTILLKSSPADRTLVAEPISSVKRQLNFQMLNASSTRAPTSSPCKNRNGKLVEIKKCSPTINPPLESGKPSGYYGPNSPLKLDEENIHLNISLNSSTKRRLQIAYPSLQKTPSKDQADISTSFSPSPLIRRPLTKSLIELAREHTEIVKEFGVLQEEDIEEEEEGEEGENGYDEKNHEDDFGLEDELIRPKVVKDIFQEDDDNDDSQAREDTFIRKRPKRRKVIRRLRDNDPETETAGFERDVHKELVKLKRRKVAEFLGSTSQISDTEFEHDPEASSGVVSSEQKPTAKRKGRKKYNLVSNNFRRLKLPKKNRFSNGRWGRR [T168A],disrupting interaction
4,MYSFELDKLKIELKTWEHDFIDKNKREPTRDDIKSLRTVRQMYKQYSTLKKKQSLQRQKVDTQESVELPAHKKDHDEVVEIGPTPQVYGKAISIFDMNLSPIKPIYMTFTNNIDVNNDNSKTISNESSPRKTILLKSSPADRTLVAEPISSVKRQLNFQMLNASSTRTPTSAPCKNRNGKLVEIKKCSPTINPPLESGKPSGYYGPNSPLKLDEENIHLNISLNSSTKRRLQIAYPSLQKTPSKDQADISTSFSPSPLIRRPLTKSLIELAREHTEIVKEFGVLQEEDIEEEEEGEEGENGYDEKNHEDDFGLEDELIRPKVVKDIFQEDDDNDDSQAREDTFIRKRPKRRKVIRRLRDNDPETETAGFERDVHKELVKLKRRKVAEFLGSTSQISDTEFEHDPEASSGVVSSEQKPTAKRKGRKKYNLVSNNFRRLKLPKKNRFSNGRWGRR [S172A],disrupting interaction
5,MYSFELDKLKIELKTWEHDFIDKNKREPTRDDIKSLRTVRQMYKQYSTLKKKQSLQRQKVDTQESVELPAHKKDHDEVVEIGPTPQVYGKAISIFDMNLSPIKPIYMTFTNNIDVNNDNSKTISNESSPRKTILLKSSPADRTLVAEPISSVKRQLNFQMLNASSTRTPTSSPCKNRNGKLVEIKKCSPTINPPLESGKPSGYYGPNAPLKLDEENIHLNISLNSSTKRRLQIAYPSLQKTPSKDQADISTSFSPSPLIRRPLTKSLIELAREHTEIVKEFGVLQEEDIEEEEEGEEGENGYDEKNHEDDFGLEDELIRPKVVKDIFQEDDDNDDSQAREDTFIRKRPKRRKVIRRLRDNDPETETAGFERDVHKELVKLKRRKVAEFLGSTSQISDTEFEHDPEASSGVVSSEQKPTAKRKGRKKYNLVSNNFRRLKLPKKNRFSNGRWGRR [S208A],disrupting interaction
6,MYSFELDKLKIELKTWEHDFIDKNKREPTRDDIKSLRTVRQMYKQYSTLKKKQSLQRQKVDTQESVELPAHKKDHDEVVEIGPTPQVYGKAISIFDMNLSPIKPIYMTFTNNIDVNNDNSKTISNESSPRKTILLKSSPADRTLVAEPISSVKRQLNFQMLNASSTRTPTSSPCKNRNGKLVEIKKCSPTINPPLESGKPSGYYGPNSPLKLDEENIHLNISLNSSTKRRLQIAYPSLQKAPSKDQADISTSFSPSPLIRRPLTKSLIELAREHTEIVKEFGVLQEEDIEEEEEGEEGENGYDEKNHEDDFGLEDELIRPKVVKDIFQEDDDNDDSQAREDTFIRKRPKRRKVIRRLRDNDPETETAGFERDVHKELVKLKRRKVAEFLGSTSQISDTEFEHDPEASSGVVSSEQKPTAKRKGRKKYNLVSNNFRRLKLPKKNRFSNGRWGRR [T241A],disrupting interaction
